# Laboratory results as given in the RNAGym collection of RNA variant scans (doi:10.1073/pnas.2313332121).
# This sample holds only a part of the variants without activity.
# B1: TPR 5TU (parent)
# chain: GGAUCUUCUCGAUCUAACAAAAAAGACAAAUCUGCCACAAAGCUUGAGAGCAUCUUCGGAUGCAGAGGCGGCAGCCUUCGGUGGCGCGAUAGCGCCAACGUUCUCAACUAUGACACGCAAAACGCGUGCUCCGUUGAAUGGAGUUUAUCAUG
# Variants of: B1
# Assay: polymerase ribozyme fitness, log enrichment relative to wild type (log ratio); higher = more active; in vitro selection for triplet polymerase activity
# Procedure, shortened: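 Mutant libraries of both subunits of a heterodimeric triplet polymerase ribozyme were PCR-built, transcribed, and selected once in triplicate, with frozen incubation at −7 °C and capture of gel-excised extended constructs on streptavidin beads before RT-PCR. Illumina sequencing of input and output libraries was filtered to genotypes with ≥10 input reads and ≥1 read per output. Fitness is the logarithm of genotype enrichment over wild-type enrichment, using inverse-variance-weighted replicate averages. The logarithm is base 2.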
row,Variant,polymerase ribozyme fitness (log ratio)
1,U4A G11A A28U G65A C72U G80U G84C A91C A97C A106C C118U G141U,≤ -4.2
2,A3U G67U A107U,≤ -4.2
3,A3G U9G C36A G67A G68C A73G U135G,≤ -4.2
4,U4A C54U G92U C118U U134A,-3.6
5,A3U G42U G48C C75G G86A C108A,≤ -4.2
6,A3G U15C C93G U146G,-2.23
7,A3U A12G C43U C54U G71U C79A A120C,≤ -4.2
8,A3C A47C G59C G86A,-3.89
9,A3C U6G G25U G83A,-3.47
10,A3U G58C G59C C96U C131A,-3.63
11,A3U U55A G84A,-0.911
12,A3G U6A U31G G88U,≤ -4.2
13,U4A G143U,-3.47
14,A3C C10G G62U G68C C87U A107C C123U G128A A137C U139C,≤ -4.2
15,U4A C38U A41U G59A A137U,-4.07
16,U4A U6G A22U U31G C35U U56A G68C C95U C125G U144C,≤ -4.2
17,A3C U56A C69A C93U G126A U139G,-2.53
18,A3U A21C G62C C63U A73U C79U G84A C93G A106U U145G,≤ -4.2
19,A3U A37U U56A A97U,-3.82
20,U4A A20C A28C A29G C87A G141U,-4.08
21,A3C U7C A47C U55A G59A A73U U82G U146C,≤ -4.2
22,A3U G46C U77C G86U A98U A121U U127A,-4.08
23,U4A C93A,-1.38
24,A3U G59A C99U U144C A150G,≤ -4.2

row,Variant,polymerase ribozyme fitness (log ratio)
1,A3G A16C A26C U45A G59C G86C U130G U145G,≤ -4.2
2,A3G A47G U61A G94U C99A C108U U135G,≤ -4.2
3,A3G A24U U55A C85A,-2.17
4,A3U G143U,-2.76
5,A3U G133U U135G,≤ -4.2
6,U4A A24U C57A C93U G94U G141U,-2.67
7,A3G C18A A19G U33G C125U,≤ -4.2
8,A3G A20C G65C G68C A98G C149U G152U,≤ -4.2
9,A3U G92A G136C,-4
10,A3C C79U C93U C95U,≤ -4.2
11,A3C A47G A52G C87U C96U C99U G124A,-4.19
12,A3C U6G A23U A39G U44A A89G C116G,≤ -4.2
13,A3C U6G A49C G65A G71A G88C C93A U135C,≤ -4.2
14,A3G A20G G48C G50C G67C G68A G83A U139C,≤ -4.2
15,A3U A26U C57U C108U C125A A147C U148G,≤ -4.2
16,A3C G58U C76U G84A C85U G94A,-2.53
17,A3U C5G A21U C85U A122G G140U U144G,≤ -4.2
18,A3C U15A A19U C75U C87U,-1.71
19,A3C C51G U55G C75U C118A,≤ -4.2
20,A3C G68U C93A,≤ -4.2
21,A3U C27G C38U G48U G58U C79G G92A C105U G117U G143U,≤ -4.2
22,A3G C18U G34U C95U A115C,-4.09
23,A3U A16U A17G A23C C93U A106G A122G U139G,≤ -4.2
24,U4A A60C G71U G92C C108G G117A G124U A137C,≤ -4.2

row,Variant,polymerase ribozyme fitness (log ratio)
1,A3G U33C G58C C116G U139A G141U U146C,≤ -4.2
2,A3U U13C A41U C76U C123U,-2.89
3,A3U C14G A28C A91U A97C A122C,≤ -4.2
4,A3G A12C C76G C93A C96A G136C,≤ -4.2
5,A3G U15G G25U A41C G83A U90A A98U C99G A113G,≤ -4.2
6,U4A C76G A91U A115U,≤ -4.2
7,A3C U31G A52C U56A U61G A91C C108G A113U,≤ -4.2
8,A3C C5U G62C,-1.89
9,A3G C5G G48C A52C C54G A66C C76G,≤ -4.2
10,A3C U61A G84A G92A A120C,≤ -4.2
11,A3G G94A,-1.67
12,A3U C36A U55C C79A C99A U145G,≤ -4.2
13,A3G U4A A17C A52G G94C U102C C131U,-1.71
14,A3U C105G,-1.75
15,A3U U15G A19C A39C U44G U55A C57U A60G C63A G84A A110U A120C,≤ -4.2
16,A3G A24U C69G C93G A119G C132G U139A,≤ -4.2
17,A3U C18U G50A G68A C76A G92C C93U,≤ -4.2
18,A3C C85U G136C,-3.76
19,A3U G58A C87G U101C A113U C131G,≤ -4.2
20,A3G A20U C36A C87G C129A U139C U146G,≤ -4.2
21,A3G A12C A37C G48A A49C U78G G86A C87G C99U A142C U146G,≤ -4.2
22,A3C G34C G48C A106U A138G A150G,≤ -4.2
23,A3U C57U C87U A113C A119G,-3.73
24,A3G C5U C35U C85U A106G,0.235

row,Variant,polymerase ribozyme fitness (log ratio)
1,A3C G11A A19C C54U A122U U135A G143A,-3.73
2,A3U C99U,-0.307
3,A3C U6G C57U G74C C149U,≤ -4.2
4,A3U C10U C54A U55A,-1.97
5,A3U C8A A39U A91G U111A A115U G117U,≤ -4.2
6,U4A C36A A52C A73G C95U,≤ -4.2
7,U4A G92A G141A,-3.96
8,A3G C18U A49C C57U C85G G143U,≤ -4.2
9,U4A A24U U31G C54U G84A,-1.15
10,A3U A17C A47U C93U U104A,-1.38
11,A3G C8G A23C C54A G80C G81A A89U C93G,≤ -4.2
12,U4A A147C,-0.789
13,U4A C27U G83C G117A A122G U146A,-3.14
14,A3U C38U C96U G126U G143A,≤ -4.2
15,A3U A26U A29U A49C C87U C114U G141A,≤ -4.2
16,A3U G11C U44A G58C G62A G68A G94C,≤ -4.2
17,A3U A41U,-1.29
18,U4A G94A,-0.663
19,A3C U6G A22C A29C C85G C93U C108G G143A,≤ -4.2
20,A3G C75A C93A A97U A98U U101G C118U,≤ -4.2
21,A3U A12G A28U C87U,≤ -4.2
22,U4A G92U,-0.358
23,A3G A17U A47U U55G,-0.403
24,A3U U55A,-0.84

row,Variant,polymerase ribozyme fitness (log ratio)
1,A3U A49G G84C,-3.89
2,A3G U82G C95U U102G,-3.62
3,A3U C93U,-1.81
4,U4A G48U C57G C93U G136A U146G,-2.55
5,A3U A142C,-1.59
6,A3C C8G U9G G59A C87A G92C G117C G133U,≤ -4.2
7,U4A C8U A16U A40C U53A C57U C87A A97U U145G,≤ -4.2
8,U4A C8G U53G G71U A73G C79G C85G C87A G88U G92U A115G,≤ -4.2
9,A3U G92A A113G G133U A142U U146G,≤ -4.2
10,U4A C54A C95A A138C,≤ -4.2
11,A3G C14G A16C U82C C129G C131A,≤ -4.2
12,A3G U53C A60C G62C A91G U104C C118A A120U U134G,≤ -4.2
13,A3G A22U A40U U44C C96G C116U U134C,≤ -4.2
14,U4A A22U A40G U145A,-3.05
15,U4A U6A A17U A30U C105U U134G,≤ -4.2
16,A3C C14G C27U C85U U144G,-2.9
17,A3U U45A C96A,-3.51
18,U4A C8G U13G A24C C96U,≤ -4.2
19,A3U A19U,-0.0693
20,A3U U4C A52C G67A G83U A122U A137U U148A,≤ -4.2
21,U4A A22C G48U C75G G84A,≤ -4.2
22,U4A A21G U55G U101G G152A,≤ -4.2
23,U4A A12U G84A A89G,-0.965
24,A3G A23C A24U C51U U55G G84A C85A G92U,≤ -4.2

row,Variant,polymerase ribozyme fitness (log ratio)
1,A3G U13A G42C C75U A138U,≤ -4.2
2,A3U U7C A52C C95U C99U,≤ -4.2
3,A3C C5A A52C G65U C99G G133C,≤ -4.2
4,A3G A30C C51U U55G U61A G68U G83C A142G,≤ -4.2
5,U4A A121G A137C C149U,-4.16
6,A3U A40G C54U C95A C149G,≤ -4.2
7,A3G C38G G42U G59C G70C U78C C87A,≤ -4.2
8,A3U G58A C96G,-1.09
9,A3U U7A C14A A41C U45G C69A C87A G94A A121C,≤ -4.2
10,A3U A39G A52G U144C,-3.97
11,U4A C10U A26U U31G A39G C57A C85A U90G A113C,≤ -4.2
12,A3C A47U,-0.813
13,A3C G58A G94A,-0.578
14,A3G A24C U53A U61A C85G,≤ -4.2
15,A3G C51A,-1.26
16,A3U A49G,-0.232
17,U4A A19C,0.332
18,A3C U15G A24G G117A U151A,≤ -4.2
19,A3G U33G U55A A66C C108U,≤ -4.2
20,A3G C27U G50A C51U C85A G140U,≤ -4.2
21,A3U A49G G50A C96U G141A,-3.63
22,A3C C57U C93A,-1.56
23,A3C U4A G71U G88A,≤ -4.2
24,A3U A17U U55G G84A C96A G133U G152C,≤ -4.2

row,Variant,polymerase ribozyme fitness (log ratio)
1,A3G C18U G50C C87G A97G C99U U146G,≤ -4.2
2,A3U U15C G81U A97U G128U,-3.58
3,A3G C8G A22U A26G G46C C96U,≤ -4.2
4,A3C A121U,0.339
5,A3U U82G,-0.249
6,A3U A20U C32U G70U G84U A120C,≤ -4.2
7,A3U C93U C118U,-1.3
8,U4A A19C A89U C96U A138G U146G,≤ -4.2
9,A3C G141U,0.471
10,A3U U6G C35G G50U U78G C79U G141U,≤ -4.2
11,A3U A24U A66U C93G A107C,≤ -4.2
12,A3U G48C C51U C57U C95A A115C,≤ -4.2
13,A3U G59C,-0.00695
14,A3C U9A G11A C35G C75A G117A U145C,≤ -4.2
15,U4A A16G A37U A91G G124U,≤ -4.2
16,A3U A16C A20C A47U U53G G86A A110G,≤ -4.2
17,A3G C43U G65U G68A G71A G86U G112U G152A,≤ -4.2
18,A3G A97C A107G,≤ -4.2
19,A3C U4G A16G U33G C43U G92U A106G,≤ -4.2
20,A3U C54A,-2.21
21,A3U C108U,-3.59
22,A3U C43A U45A A47U G59C C125U U130C A137G,≤ -4.2
23,A3C U7A C10U U53A G92C A138G,≤ -4.2
